{"source": "patent US20230203177A1", "about": "(Bristol-Myers Squibb, published 2023)", "key": {"[1]": {"biological_target": "human CD40 on primary human tonsillar B cells (human, UniProt P25942 21-277)", "sequence (P25942 21-277 limits assumed)": "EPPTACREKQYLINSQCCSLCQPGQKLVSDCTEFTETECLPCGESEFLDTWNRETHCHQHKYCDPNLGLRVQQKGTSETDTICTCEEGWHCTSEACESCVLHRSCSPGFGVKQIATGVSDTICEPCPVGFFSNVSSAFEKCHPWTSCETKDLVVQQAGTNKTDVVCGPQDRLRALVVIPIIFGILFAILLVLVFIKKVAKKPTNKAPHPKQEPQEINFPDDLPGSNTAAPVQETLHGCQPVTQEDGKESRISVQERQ", "assay": "cell-based or functional assay"}, "[2]": {"biological_target": "T1, soluble human CD40 extracellular domain (human, UniProt P25942 21-193)", "T1 construct": "Produced in house; also called hCD40; soluble hCD40 extracellular domain", "T1 sequence (P25942 21-193 limits assumed)": "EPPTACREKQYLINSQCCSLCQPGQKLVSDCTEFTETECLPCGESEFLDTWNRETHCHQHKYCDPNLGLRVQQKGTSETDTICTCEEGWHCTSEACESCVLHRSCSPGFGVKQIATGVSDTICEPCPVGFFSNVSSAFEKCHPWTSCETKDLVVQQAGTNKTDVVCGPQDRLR", "assay": "SPR, purified Ab on protein A, 6 concentrations of hCD40 ECD, mean of 3", "method": "(§1) Additionally, to more accurately define the dissociation rate (kd), a longer dissociation time of 360 seconds (s) was used as opposed to the shorter 180 s dissociation that had been used in the supernatant screening experiment.\n(§2) CD40 binding SPR: SPR studies of the purified antibodies were conducted on BIAcore™ T200 instrument (GE Healthcare, Chicago Ill.). A Series S Protein A sensor chip (GE Healthcare, Chicago Ill.) was equilibrated with SPR running buffer of 10 mM NaPO₄, 130 mM NaCl, 0.05% tween 20, (PBS-T) pH 7.2 at 25° C. The purified antibody samples were diluted to 3 μg/ml in PBS-T and captured on the protein A surface for 30 s at 10 μl/min Binding of 3.91, 7.81, 15.6, 31.3, 62.5, and 125 nM human CD40 extracellular domain (produced in house) was evaluated using association time of 180 s at 30 μl/min, followed by a dissociation time of 360 s at 30 μl/min Regeneration between cycles was accomplished using two 15 s injections of 10 mM glycine pH 1.5. […] Data were analyzed using BIAcore™ T200 evaluation software by fitting to a 1:1 Langmuir model."}, "[3]": {"biological_target": "T1, soluble human CD40 extracellular domain", "assay": "SPR, purified Ab on protein A chip, soluble hCD40 ECD analyte, Fc2-1, n=3 global fit", "method": "as §2, with “A” for “CD40 binding SPR: SPR studies of the purified antibodies were conducted on BIAcore™ T200 instrument (GE Healthcare, Chicago Ill.). A”, “[…] After priming the system, the 3 μg/ml” for “The purified”, “were” for “were diluted to 3 μg/ml in PBS-T and”, “50 nM” for “3.91, 7.81, 15.6, 31.3, 62.5,”, “500” for “125”, “180” for “360”"}, "[4]": {"biological_target": "T1, soluble human CD40 extracellular domain", "assay": "SPR, purified Ab on protein A chip, soluble hCD40 ECD analyte, Fc3-1, n=3 global fit"}, "[5]": {"biological_target": "T1, soluble human CD40 extracellular domain", "assay": "SPR, purified Ab on protein A chip, soluble hCD40 ECD analyte, Fc4-1, n=3 global fit", "method": "as §2, with “A” for “CD40 binding SPR: SPR studies of the purified antibodies were conducted on BIAcore™ T200 instrument (GE Healthcare, Chicago Ill.). A”, “[…] After priming the system, the 3 μg/ml” for “The purified”, “were” for “were diluted to 3 μg/ml in PBS-T and”, “50 nM” for “3.91, 7.81, 15.6, 31.3, 62.5,”, “500” for “125”, “180” for “360”"}, "[6]": {"biological_target": "T1, soluble human CD40 extracellular domain", "assay": "SPR, Ab captured from supernatant on protein A, hCD40 ECD analyte; antibody captured out of supernatant", "method": "The titer data (Table 21) were used to normalize the antibody concentration in each supernatant to 3 μg/ml, and these antibodies were captured out of the supernatants on a protein A CMS Series S sensor chip (GE Healthcare), and tested for binding to two concentrations (5 nM and 50 nM) of soluble hCD40 extracellular domain.\nCD40 binding SPR of antibody supernatants: Surface plasmon resonance (SPR) studies were conducted on a BIAcore™ T200 instrument (GE Healthcare, Chicago Ill.). A Series S Protein A sensor chip (GE Healthcare, Chicago Ill.) was equilibrated with SPR running buffer of 10 mM NaPO₄, 130 mM NaCl, 0.05% tween 20, (PBS-T) pH 7.2 at 25° C. The 96 antibody supernatants were normalized to a concentration of 3 μg/ml by diluting with PBS-T using a PerkinElmer JANUS® G3 system (PerkinElmer, Akron, Ohio). After priming the system, the 3 μg/ml antibody samples were captured on the protein A surface for 30 s at 10 μl/min Binding of 50 nM and 500 nM human CD40 extracellular domain (produced in house) was evaluated using association time of 180 s at 30 μl/min, followed by a dissociation time of 180 s at 30 μl/min Regeneration between cycles was accomplished using two 15 s injections of 10 mM glycine pH 1.5. […] Data were analyzed using BIAcore™ T200 evaluation software by fitting to a 1:1 Langmuir model."}, "[7]": {"biological_target": "T1, soluble human CD40 extracellular domain", "assay": "SPR, purified Ab on protein A, 6 concentrations of hCD40 ECD, mean of 3; purified antibody, mean of three measurements", "method": "as §1, §2"}, "[8]": {"biological_target": "T1, soluble human CD40 extracellular domain", "assay": "SPR, purified Ab on protein A, 6 concentrations of hCD40 ECD", "method": "as §1, §2"}, "[9]": {"biological_target": "T1, soluble human CD40 extracellular domain", "assay": "SPR, Ab captured from supernatant on protein A, hCD40 ECD analyte", "summary_of_the_method": "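Soluble human CD40 extracellular domain flowed at 50/500 nM (or 5/50 nM) over antibody held on protein A at 3 μg/ml, with 180 s on- and off-phases. Run in PBS-T pH 7.2 at 25 °C; kinetics from 1:1 Langmuir model.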"}, "[10]": {"biological_target": "T1, soluble human CD40 extracellular domain", "assay": "SPR, antibody captured from supernatant on protein A chip, soluble hCD40 ECD at 5 and 50 nM (summary table of the 16 chosen antibodies)"}}}
{"binder": "BMS-986325 (antibody, human IgG1, kappa, IgG1-P238K; purified lots and supernatant M1 treated as one molecule; also called M1 (wt); Y12XX-hz28) heavy: not shown light: DIQMTQSPSFLSASVGDRVTITCKASQDVSTAVAWYQQKPGKAPKLLIYSASYRYTGVPSRFSGSGSGTDFTLTISSLQPEDFATYYCQQHYSTPWTFGGGTKVEIKRTVAAPSVFIFPPSDEQLKSGTASVVCLLNNFYPREAKVQWKVDNALQSGNSQESVTEQDSKDSTYSLSSTLTLSKADYEKHKVYACEVTHQGLSSPVTKSFNRGEC", "values": [{"measurement": "IC50, inhibition of tonsillar human B cell proliferation stimulated by IZ-hCD40L trimer (BMS-986325-WT P1-071223-1 lot 1)", "setting": "[1]", "value": 1.2, "unit": "ng/mL"}, {"measurement": "IC50, inhibition of tonsillar human B cell proliferation stimulated by IZ-hCD40L trimer (BMS-986325-WT P1-071223-3 lot 3)", "setting": "[1]", "value": 5.6, "unit": "ng/mL"}, {"measurement": "IC50, inhibition of tonsillar human B cell proliferation stimulated by IZ-hCD40L trimer (BMS-986325 P1-073346-1)", "setting": "[1]", "value": 1.4, "unit": "ng/mL"}, {"measurement": "IC50, inhibition of tonsillar human B cell proliferation stimulated by hCD40L expressing CHO cells (BMS-986325-WT P1-071223-1 lot 1)", "setting": "[1]", "value": 42, "unit": "ng/mL"}, {"measurement": "IC50, inhibition of tonsillar human B cell proliferation stimulated by hCD40L expressing CHO cells (BMS-986325-WT P1-071223-3 lot 3)", "setting": "[1]", "value": 31.4, "unit": "ng/mL"}, {"measurement": "IC50, inhibition of tonsillar human B cell proliferation stimulated by hCD40L expressing CHO cells (BMS-986325 P1-073346-1)", "setting": "[1]", "value": 47, "unit": "ng/mL"}, {"measurement": "Kd", "setting": "[2]", "value": 3.1, "unit": "nM"}, {"measurement": "koff", "setting": "[2]", "value": 0.00066, "unit": "s⁻¹"}, {"measurement": "Kd", "setting": "[3]", "value": 4.4, "unit": "nM"}, {"measurement": "koff", "setting": "[3]", "value": 0.00087, "unit": "s⁻¹"}, {"measurement": "kon", "setting": "[3]", "value": 200000, "unit": "M⁻¹ s⁻¹"}, {"measurement": "Kd", "setting": "[4]", "value": 4.5, "unit": "nM"}, {"measurement": "koff", "setting": "[4]", "value": 0.00091, "unit": "s⁻¹"}, {"measurement": "kon", "setting": "[4]", "value": 200000, "unit": "M⁻¹ s⁻¹"}, {"measurement": "Kd", "setting": "[5]", "value": 4.4, "unit": "nM"}, {"measurement": "koff", "setting": "[5]", "value": 0.00091, "unit": "s⁻¹"}, {"measurement": "kon", "setting": "[5]", "value": 210000, "unit": "M⁻¹ s⁻¹"}, {"measurement": "Kd", "setting": "[6]", "value": 4.2, "unit": "nM"}, {"measurement": "kon", "setting": "[7]", "value": 220000, "unit": "M⁻¹ s⁻¹"}]}
{"binder": "M80 (HC-K63Q / LC-R61Q) (antibody, human IgG1, kappa, V domains shown, IgG1-P238K; also called HC16/LC5) VH: QVQLVQSGAEVKKPGSSVKVSCKASGYAFTSYWMHWVRQAPGQGLEWMGQINPTTGRSQYNEQFKTRVTITADKSTSTAYMELSSLRSEDTAVYYCARWGLQPFAYWGQGTLVTVSS VL: DIQMTQSPSFLSASVGDRVTITCKASQDVSTAVAWYQQKPGKAPKLLIYSASYRYTGVPSQFSGSGSGTDFTLTISSLQPEDFATYYCQQHYSTPWTFGGGTKVEIKR", "values": [{"measurement": "IC50, inhibition of tonsillar human B cell proliferation stimulated by IZ-hCD40L trimer", "setting": "[1]", "value": 16.4, "unit": "ng/mL"}, {"measurement": "IC50, inhibition of tonsillar human B cell proliferation stimulated by hCD40L expressing CHO cells", "setting": "[1]", "value": 369, "unit": "ng/mL"}, {"measurement": "Kd", "setting": "[8]", "value": 2.9, "unit": "nM"}, {"measurement": "koff", "setting": "[8]", "value": 0.0007, "unit": "s⁻¹"}, {"measurement": "kon", "setting": "[8]", "value": 240000, "unit": "M⁻¹ s⁻¹"}, {"measurement": "Kd", "setting": "[9]", "value": 4.1, "unit": "nM"}, {"measurement": "Kd", "setting": "[10]", "value": 4.1, "unit": "nM"}]}
{"binder": "M81 (HC-wt / LC-K107Q,R108Q) (antibody, human IgG1, kappa, IgG1-P238K; also called HC1/LC6) heavy: not shown light: DIQMTQSPSFLSASVGDRVTITCKASQDVSTAVAWYQQKPGKAPKLLIYSASYRYTGVPSRFSGSGSGTDFTLTISSLQPEDFATYYCQQHYSTPWTFGGGTKVEIQQTVAAPSVFIFPPSDEQLKSGTASVVCLLNNFYPREAKVQWKVDNALQSGNSQESVTEQDSKDSTYSLSSTLTLSKADYEKHKVYACEVTHQGLSSPVTKSFNRGEC", "values": [{"measurement": "IC50, inhibition of tonsillar human B cell proliferation stimulated by IZ-hCD40L trimer", "setting": "[1]", "value": 0.7, "unit": "ng/mL"}, {"measurement": "IC50, inhibition of tonsillar human B cell proliferation stimulated by hCD40L expressing CHO cells", "setting": "[1]", "value": 25.7, "unit": "ng/mL"}, {"measurement": "Kd", "setting": "[8]", "value": 3, "unit": "nM"}, {"measurement": "koff", "setting": "[8]", "value": 0.0007, "unit": "s⁻¹"}, {"measurement": "kon", "setting": "[8]", "value": 240000, "unit": "M⁻¹ s⁻¹"}, {"measurement": "Kd", "setting": "[9]", "value": 4.1, "unit": "nM"}, {"measurement": "Kd", "setting": "[10]", "value": 4.1, "unit": "nM"}]}
